Assay results reported in paper PMC5677370, “Structure-based nuclear import mechanism of histones H3 and H4 mediated by Kap123” (eLife, 2017).

Molecular target: T1, full-length Kluyveromyces lactis (Kl) Kap123, wild type
T1 chain: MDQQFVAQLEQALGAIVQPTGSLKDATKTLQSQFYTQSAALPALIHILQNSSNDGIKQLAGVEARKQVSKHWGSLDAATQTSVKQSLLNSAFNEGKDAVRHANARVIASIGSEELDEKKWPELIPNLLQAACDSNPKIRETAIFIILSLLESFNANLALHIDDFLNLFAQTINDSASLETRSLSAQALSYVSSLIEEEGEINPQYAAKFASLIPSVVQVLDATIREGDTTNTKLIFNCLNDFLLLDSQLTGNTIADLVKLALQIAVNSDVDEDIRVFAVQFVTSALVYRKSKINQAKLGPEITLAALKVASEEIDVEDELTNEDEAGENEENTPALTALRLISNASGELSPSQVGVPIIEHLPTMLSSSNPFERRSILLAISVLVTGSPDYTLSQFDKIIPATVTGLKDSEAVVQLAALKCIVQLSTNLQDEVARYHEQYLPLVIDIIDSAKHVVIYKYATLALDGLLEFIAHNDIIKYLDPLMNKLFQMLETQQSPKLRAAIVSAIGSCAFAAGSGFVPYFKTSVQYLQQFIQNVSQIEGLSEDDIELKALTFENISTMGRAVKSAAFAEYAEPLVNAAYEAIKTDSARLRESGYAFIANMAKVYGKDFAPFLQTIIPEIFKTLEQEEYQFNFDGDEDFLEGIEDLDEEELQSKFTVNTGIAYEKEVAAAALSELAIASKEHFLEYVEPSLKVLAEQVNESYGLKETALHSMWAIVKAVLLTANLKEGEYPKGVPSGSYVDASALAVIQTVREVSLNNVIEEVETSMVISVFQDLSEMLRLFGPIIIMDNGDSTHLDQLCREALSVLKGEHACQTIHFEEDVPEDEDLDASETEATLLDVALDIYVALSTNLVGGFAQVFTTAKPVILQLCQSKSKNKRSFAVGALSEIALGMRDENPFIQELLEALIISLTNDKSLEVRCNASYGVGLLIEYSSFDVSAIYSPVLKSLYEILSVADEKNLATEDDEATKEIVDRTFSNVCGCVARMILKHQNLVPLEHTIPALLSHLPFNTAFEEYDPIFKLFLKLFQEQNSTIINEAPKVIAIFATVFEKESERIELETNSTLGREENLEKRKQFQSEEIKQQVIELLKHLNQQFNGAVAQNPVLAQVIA
Experiment: SPR
Conditions: chain shown with the change; 7°C; wild-type Kap123 immobilized on a CM5 chip with 7116 RU; peptides injected at 0-10 µM; parent: est. 1.00; read off a plot

ratio to parent: 0.4
Binder: SGRGQGGKGLGQGGAKRHRKI [wild-type H4_(1–21)-NLS peptide, P02309 K5Q; K12Q]
